The values that follow are results of earlier work, collected in patent US12128089B2 (Slayback Pharma LLC, priority 2022, dated 2024).

Where two headings read alike, the source gives them in different places.

The conditions of data set [1]: neutral aqueous solution.
For data set [2] the following is noted: dilute aqueous solutions, random coil conformation.
Experiment in data set [3]: not given
This is another data set of the same source.

Experiment in data set [4]: not given
This is another data set of the same source.

As to Glucagon, the “Onset of action post injection” value is 5 to 20 min. In addition, in data set [1], the Precipitation after preparation result is given as “precipitates within an hour of preparation”. Moreover, in data set [2], the “α-helix at the C-terminal end” value is listed as 15%. Further, in data set [3], the Half-life in plasma was 3 to 6 min. Also, the “Solubility in aqueous solutions” value in data set [4] (pH less than 3 or greater than 9) is more than 10000 µg/mL. In data set [4] (pH range of 4 to 8), the “Solubility in aqueous solutions” value was less than 100 µg/mL.
